Experimental findings from patent US20030211537A1 are described below.

Non-standard residues stand in square brackets, D forms with d. No end group written: not given here.

The target of experiment [1] is T1, rat µ opioid receptor (rat), P33535.
T1 chain: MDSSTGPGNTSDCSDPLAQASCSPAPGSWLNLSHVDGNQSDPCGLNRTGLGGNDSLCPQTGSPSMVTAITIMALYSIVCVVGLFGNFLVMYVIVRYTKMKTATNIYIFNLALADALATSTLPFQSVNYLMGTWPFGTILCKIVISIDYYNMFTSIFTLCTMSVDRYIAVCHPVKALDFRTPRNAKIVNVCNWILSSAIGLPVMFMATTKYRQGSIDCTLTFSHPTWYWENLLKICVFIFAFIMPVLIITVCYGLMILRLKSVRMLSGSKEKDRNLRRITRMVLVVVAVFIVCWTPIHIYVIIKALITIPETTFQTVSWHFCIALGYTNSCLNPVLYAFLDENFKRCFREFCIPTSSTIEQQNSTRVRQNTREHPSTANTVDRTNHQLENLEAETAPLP
Briefly: competition vs [3H]DAMGO, COS-7 membranes.

Experiment [2] has as its target cloned human µ opioid receptor (human), P35372. In words: saturation binding, Scatchard analysis, COS-7 membranes.
In experiment [3] the target is T1, rat µ opioid receptor (rat), P33535. In words: saturation binding, COS-7 membranes.
For experiment [4], the target named is T2, κ1-78/δ70-372 chimeric opioid receptor (mouse).
T2 chain: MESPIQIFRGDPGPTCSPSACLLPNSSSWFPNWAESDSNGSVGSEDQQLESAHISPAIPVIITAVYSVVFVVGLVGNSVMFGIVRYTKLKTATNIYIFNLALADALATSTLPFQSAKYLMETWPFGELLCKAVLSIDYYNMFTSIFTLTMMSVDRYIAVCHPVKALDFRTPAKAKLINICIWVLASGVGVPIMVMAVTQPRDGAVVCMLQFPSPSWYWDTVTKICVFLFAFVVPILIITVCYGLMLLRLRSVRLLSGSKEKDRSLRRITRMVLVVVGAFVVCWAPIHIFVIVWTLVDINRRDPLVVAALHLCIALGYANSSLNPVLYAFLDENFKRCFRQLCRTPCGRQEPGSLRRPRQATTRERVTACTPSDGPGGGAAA
Briefly: competition vs [3H]DPDPE, COS-7 membranes.

The target in experiment [5] is T3, mouse delta opioid receptor (mORD1) (mouse), P32300.
T3 chain: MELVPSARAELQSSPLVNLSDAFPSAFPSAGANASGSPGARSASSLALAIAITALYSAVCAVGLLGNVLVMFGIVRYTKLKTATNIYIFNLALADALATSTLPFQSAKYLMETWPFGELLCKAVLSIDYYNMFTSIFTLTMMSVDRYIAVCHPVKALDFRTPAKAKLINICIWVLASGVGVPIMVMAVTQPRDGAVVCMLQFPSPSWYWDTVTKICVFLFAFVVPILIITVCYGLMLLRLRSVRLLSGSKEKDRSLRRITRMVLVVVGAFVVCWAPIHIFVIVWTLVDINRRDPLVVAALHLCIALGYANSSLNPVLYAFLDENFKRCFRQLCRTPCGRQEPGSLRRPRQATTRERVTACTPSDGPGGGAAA
In words: cell-based or functional assay.

The target of experiment [6] is T4, D128N mutant mouse delta opioid receptor (mouse), P32300.
T4 chain: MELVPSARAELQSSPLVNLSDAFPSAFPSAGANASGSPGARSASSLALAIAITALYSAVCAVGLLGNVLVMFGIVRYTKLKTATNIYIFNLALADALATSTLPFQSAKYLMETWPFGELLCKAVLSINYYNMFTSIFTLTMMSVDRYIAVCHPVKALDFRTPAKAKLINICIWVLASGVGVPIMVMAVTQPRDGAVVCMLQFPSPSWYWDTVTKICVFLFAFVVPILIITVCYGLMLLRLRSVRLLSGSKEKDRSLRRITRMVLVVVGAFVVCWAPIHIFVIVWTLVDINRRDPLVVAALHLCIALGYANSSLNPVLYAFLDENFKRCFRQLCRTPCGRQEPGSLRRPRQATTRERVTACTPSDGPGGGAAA
Briefly: cell-based or functional assay.

Experiment [7] addresses T5, H278N mutant mouse delta opioid receptor (mouse), P32300.
T5 chain: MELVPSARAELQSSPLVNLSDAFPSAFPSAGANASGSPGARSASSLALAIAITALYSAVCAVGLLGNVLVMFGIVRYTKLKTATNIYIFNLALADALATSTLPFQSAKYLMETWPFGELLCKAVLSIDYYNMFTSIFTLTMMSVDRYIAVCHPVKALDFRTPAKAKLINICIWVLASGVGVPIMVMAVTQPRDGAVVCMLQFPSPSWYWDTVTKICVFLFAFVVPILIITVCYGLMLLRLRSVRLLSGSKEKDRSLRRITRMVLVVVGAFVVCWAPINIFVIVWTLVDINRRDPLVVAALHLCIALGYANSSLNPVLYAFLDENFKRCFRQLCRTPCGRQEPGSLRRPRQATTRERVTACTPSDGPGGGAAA
Briefly: competition vs 3H-naltrindole, COS-7 membranes.

Experiment [8] concerns the target T3, mouse delta opioid receptor (mORD1) …. In words: competition vs [3H]naltrindole, CHO-DG44 membranes.
For experiment [9] the target is unchanged. Briefly: competition vs [3H]naltrindole, COS-1 membranes.
Experiment [10] has the same target. In words: radioligand binding, COS-7 membranes.

Chain of cloned human µ opioid receptor (human), P35372 (P35372 whole entry): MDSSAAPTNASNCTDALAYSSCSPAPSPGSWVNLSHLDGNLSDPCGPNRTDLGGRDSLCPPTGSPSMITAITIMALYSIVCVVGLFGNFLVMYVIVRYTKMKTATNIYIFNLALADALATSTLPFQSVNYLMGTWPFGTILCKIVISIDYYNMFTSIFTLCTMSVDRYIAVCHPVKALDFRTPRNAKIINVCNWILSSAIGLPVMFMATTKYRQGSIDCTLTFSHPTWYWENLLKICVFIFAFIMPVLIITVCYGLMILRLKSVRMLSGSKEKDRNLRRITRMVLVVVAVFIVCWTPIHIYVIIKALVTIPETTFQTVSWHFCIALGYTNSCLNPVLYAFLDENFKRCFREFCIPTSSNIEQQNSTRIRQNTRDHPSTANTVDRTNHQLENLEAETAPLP

For YAGFG (modifications not checked) [[D-Ala2,MePhe4,Gly-ol5]enkephalin (DAMGO)], the Ki (commonly a dissociation constant, usually derived from enzyme kinetics or from competition with a known ligand) in experiment [1] stood at 2 nM. The Kd (as a rule, the constant that tells how readily two partners part at equilibrium) in experiment [2] worked out at 1 nM; in experiment [3], 0.57 nM.
On to Y[dS]GFLT [[D-Ser2, Leu5] enkephalin-Thr6 (DSLET)], for which, in experiment [4], the IC50 (as a rule, the concentration at which inhibition is half-maximal) was 2 nM. For the same molecule, the inhibition of forskolin-stimulated cAMP formation in [5] amounted to 70%. This molecule displayed an EC50 to inhibit forskolin-stimulated cAMP accumulation in [6] of 30 nM. This molecule also displayed a Ki in experiment [7] of 0.5 nM.
For YAGFL (modifications not checked) [DADL], the Ki worked out at 0.74 nM in [8] and 16 nM in [1]. In experiment [9], the IC50 is 20 nM.
Regarding YCGFC (modifications not checked) [[D-Pen2, D-Pen5]enkephalin (DPDPE)], the average binding (fmol/mg protein) in experiment [10] came to 1990.
